The target of this assay is Recombinant human Src expressed in Sf9 insect cells (purified recombinant full-length Src from Upstate Biotechnology) (human) (UniProt P12931). Nature of the assay: cell-based or functional assay.

Take “GST-ND1 (amino acid residue 379-435 of pig kidney Na/K-ATPase α1 subunit) (from UniProt P05023 381-439)”: the IC50 of Src inhibition (pY418) was determined as 50 nM.

The values above are taken from US20110245167A1.
